Values of other authors as cited in paper PMC6201748.

Target: ZipA (Escherichia coli) (UniProt P77173)
Experiment: SPR

Chain of FtsZ (P0A9A6 whole entry): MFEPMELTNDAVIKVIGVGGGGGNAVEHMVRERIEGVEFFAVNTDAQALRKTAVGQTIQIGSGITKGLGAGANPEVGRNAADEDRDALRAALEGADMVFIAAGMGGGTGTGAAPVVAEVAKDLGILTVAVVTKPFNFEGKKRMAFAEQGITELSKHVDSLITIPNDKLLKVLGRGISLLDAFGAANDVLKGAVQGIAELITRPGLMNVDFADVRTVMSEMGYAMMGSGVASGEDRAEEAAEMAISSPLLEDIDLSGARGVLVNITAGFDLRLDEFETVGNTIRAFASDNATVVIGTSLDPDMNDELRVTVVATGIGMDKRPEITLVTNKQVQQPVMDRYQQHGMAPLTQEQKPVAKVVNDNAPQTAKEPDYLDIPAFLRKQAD

In the case of FtsZ (from UniProt P0A9A6), the Kd is listed as 7 µM.
